Results published in paper PMC8599947.

What was measured:
CST g3.1 [1] = biological target: T1, CST g3.1 (human, UniProt Q2NKJ3;Q9H668;Q86WV5 1-1217;1-368;1-123, K1167E;CTC1:K1164E); test: EMSA
CST g2.1 [2] = biological target: T2, CST g2.1 (human, UniProt Q2NKJ3;Q9H668;Q86WV5 1-1217;1-368;1-123, N981D;Y983A;CTC1:R978E); test: EMSA
CST g1.1 [3] = biological target: T3, CST g1.1 (human, UniProt Q2NKJ3;Q9H668;Q86WV5 1-1217;1-368;1-123, E951K;CTC1:Y949A); test: EMSA
[4] = biological target: CST g4.1 (negative control mutant) (human, UniProt Q2NKJ3;Q9H668;Q86WV5 1-1217;1-368;1-123, R744E;CTC1:K743E); test: fluorescence anisotropy
CST g1.1 [5] = biological target: T3, CST g1.1; test: fluorescence anisotropy
CST g3.1 [6] = biological target: T1, CST g3.1; test: fluorescence anisotropy
CST g2.1 [7] = biological target: T2, CST g2.1; test: fluorescence anisotropy

T2 sequence (Q2NKJ3 whole entry N981D/Y983A, chain 1 of 3): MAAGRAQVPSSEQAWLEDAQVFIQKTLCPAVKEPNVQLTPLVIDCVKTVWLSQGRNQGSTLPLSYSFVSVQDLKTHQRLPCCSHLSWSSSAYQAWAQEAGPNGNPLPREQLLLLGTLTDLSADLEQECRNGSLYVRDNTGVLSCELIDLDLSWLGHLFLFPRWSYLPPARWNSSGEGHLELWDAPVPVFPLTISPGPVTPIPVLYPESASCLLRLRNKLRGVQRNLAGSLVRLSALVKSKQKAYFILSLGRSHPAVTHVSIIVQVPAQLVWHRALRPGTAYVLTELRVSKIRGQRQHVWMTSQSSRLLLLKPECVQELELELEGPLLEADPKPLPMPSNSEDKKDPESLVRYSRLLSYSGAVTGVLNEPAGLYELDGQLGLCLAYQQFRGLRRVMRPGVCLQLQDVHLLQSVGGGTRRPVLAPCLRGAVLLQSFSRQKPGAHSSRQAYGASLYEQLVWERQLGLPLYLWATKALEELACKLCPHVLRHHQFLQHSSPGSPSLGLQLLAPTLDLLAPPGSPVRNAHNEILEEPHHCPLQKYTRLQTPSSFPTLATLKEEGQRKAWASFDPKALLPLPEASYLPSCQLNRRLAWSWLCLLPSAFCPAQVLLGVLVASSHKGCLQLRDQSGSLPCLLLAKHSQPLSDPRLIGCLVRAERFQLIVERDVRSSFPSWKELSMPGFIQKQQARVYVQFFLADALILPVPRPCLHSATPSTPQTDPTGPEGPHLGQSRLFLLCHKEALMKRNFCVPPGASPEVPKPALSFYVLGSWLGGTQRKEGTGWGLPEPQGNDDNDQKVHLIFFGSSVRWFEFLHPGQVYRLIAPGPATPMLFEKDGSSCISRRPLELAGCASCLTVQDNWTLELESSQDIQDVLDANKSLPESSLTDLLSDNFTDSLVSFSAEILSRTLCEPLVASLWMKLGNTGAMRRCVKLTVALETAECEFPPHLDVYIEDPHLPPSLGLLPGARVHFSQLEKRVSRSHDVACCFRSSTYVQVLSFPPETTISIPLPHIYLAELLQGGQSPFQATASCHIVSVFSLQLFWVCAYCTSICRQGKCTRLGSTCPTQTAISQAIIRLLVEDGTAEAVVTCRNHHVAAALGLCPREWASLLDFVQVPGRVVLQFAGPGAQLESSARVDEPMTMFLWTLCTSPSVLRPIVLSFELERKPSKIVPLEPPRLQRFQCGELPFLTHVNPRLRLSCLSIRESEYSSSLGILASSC
T2 sequence (Q9H668 whole entry, stated change not applied, chain 2 of 3): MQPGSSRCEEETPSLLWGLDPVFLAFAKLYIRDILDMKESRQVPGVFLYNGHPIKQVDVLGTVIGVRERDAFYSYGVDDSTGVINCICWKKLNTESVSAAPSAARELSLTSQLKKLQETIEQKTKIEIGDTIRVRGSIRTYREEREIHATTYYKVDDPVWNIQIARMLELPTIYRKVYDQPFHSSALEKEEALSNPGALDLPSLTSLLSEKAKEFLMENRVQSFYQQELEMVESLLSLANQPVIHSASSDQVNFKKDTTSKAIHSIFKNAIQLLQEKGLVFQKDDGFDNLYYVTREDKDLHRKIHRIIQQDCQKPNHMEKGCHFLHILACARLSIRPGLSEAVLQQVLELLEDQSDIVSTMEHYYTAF
T2 sequence (Q86WV5 whole entry, stated change not applied, chain 3 of 3): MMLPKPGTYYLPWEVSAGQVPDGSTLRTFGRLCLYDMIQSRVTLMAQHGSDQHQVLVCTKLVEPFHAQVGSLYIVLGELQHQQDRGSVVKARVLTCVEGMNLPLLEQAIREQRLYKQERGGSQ
T1 sequence (Q2NKJ3 whole entry K1167E, chain 1 of 3): as the sequence (Q2NKJ3 whole entry N981D/Y983A, chain 1 of 3) above, with D981N, A983Y, K1167E counted along it
T1 sequence (Q9H668 whole entry, stated change not applied, chain 2 of 3): as the sequence (Q9H668 whole entry, stated change not applied, chain 2 of 3) above
T1 sequence (Q86WV5 whole entry, stated change not applied, chain 3 of 3): as the sequence (Q86WV5 whole entry, stated change not applied, chain 3 of 3) above
T3 sequence (Q2NKJ3 whole entry E951K, chain 1 of 3): as the sequence (Q2NKJ3 whole entry N981D/Y983A, chain 1 of 3) above, with E951K, D981N, A983Y counted along it
T3 sequence (Q9H668 whole entry, stated change not applied, chain 2 of 3): as the sequence (Q9H668 whole entry, stated change not applied, chain 2 of 3) above
T3 sequence (Q86WV5 whole entry, stated change not applied, chain 3 of 3): as the sequence (Q86WV5 whole entry, stated change not applied, chain 3 of 3) above
Sequence of CST g4.1 (negative control mutant) (Q2NKJ3 whole entry R744E, chain 1 of 3): as the sequence (Q2NKJ3 whole entry N981D/Y983A, chain 1 of 3) above, with R744E, D981N, A983Y counted along it
Sequence of CST g4.1 (negative control mutant) (Q9H668 whole entry, stated change not applied, chain 2 of 3): as the sequence (Q9H668 whole entry, stated change not applied, chain 2 of 3) above
Sequence of CST g4.1 (negative control mutant) (Q86WV5 whole entry, stated change not applied, chain 3 of 3): as the sequence (Q86WV5 whole entry, stated change not applied, chain 3 of 3) above

Row | Binder | Kd (CST g3.1 [1]) | Kd (CST g2.1 [2]) | Kd (CST g1.1 [3]) | Kd [4] | Kd (CST g1.1 [5]) | Kd (CST g3.1 [6]) | Kd (CST g2.1 [7])
1 | TTAGGGTTAGGGTTAGGG (ssDNA) [3xTEL (EMSA)] | 97 ± 27 nM | 210 ± 106 nM | 133 ± 73 nM | – | – | – | –
2 | TTAGGGTTAGGGTTAGGG (ssDNA) [3xTEL (FP)] | – | – | – | 2 ± 0.16 nM | ~520 nM | ~420 nM | ~800 nM
